Assay results published in the supplement of paper PMC10724198.
± gives the standard deviation of the averaged measurements.

Assays:
[1] = tested on: Saccharomyces cerevisiae; assay: protein stability index of tFT-peptide fusion (C-terminal peptide) (PSI (0-1 scale)); higher = more stable (slower turnover); conditions: genetic background: wild type; temperature: 30 C
[2] = tested on: Saccharomyces cerevisiae; assay: as above
Description: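 MPS profiling in S. cerevisiae of the tFT-X12 degron library: putative degron peptides plus stable controls, 12 aa, fused to the C-terminus of a sfGFP-mCherry timer. Cells are FACS-sorted into 8 mCherry/sfGFP bins and deep-sequenced. PSI runs from 0 (unstable) to 1 (stable). Backgrounds are wild type, das1Δ and doa10Δ at 30 °C, and wild type, das1Δ, cdc34-1 and cdc53-1 at 37 °C; 2-3 technical replicates each.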

[3] = genetic background: cdc34-1, temperature: 37 C
[4] = genetic background: cdc53-1, temperature: 37 C
[5] = genetic background: das1 deletion, temperature: 30 C
[6] = genetic background: das1 deletion, temperature: 37 C
[7] = genetic background: doa10 deletion, temperature: 30 C
[8] = genetic background: wild type, temperature: 30 C
[9] = genetic background: wild type, temperature: 37 C
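Note: PSI is a weighted mean of sequencing reads over stability bins, variants kept only with over 10 reads, mCherry proximal and sfGFP distal, peptide attached via GGGS linker.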

| Sequence | protein stability index [1] | protein stability index [2, 3] | protein stability index [2, 4] | protein stability index [2, 5] | protein stability index [2, 6] | protein stability index [2, 7] | protein stability index [2, 8] | protein stability index [2, 9] |
| --- | --- | --- | --- | --- | --- | --- | --- | --- |
| SLSALPRPPRLL | 0.614 ± 0.26 | 0.669 ± 0.0078 | 0.713 ± 0.022 | 0.673 ± 0.021 | 0.7323 ± 0.0002 | 0.698 ± 0.027 | 0.677 ± 0.023 | 0.694 ± 0.0087 |
| RGLLLKILIASG | 0.237 ± 0.081 | 0.376 ± 0.029 | 0.463 ± 0.034 | 0.305 ± 0.019 | 0.48 ± 0.0095 | 0.188 ± 0.012 | 0.213 ± 0.026 | 0.382 ± 0.0086 |
| LPFFSFSPWWFY | 0.262 ± 0.033 | 0.773 ± 0.042 | 0.808 ± 0.026 | 0.736 ± 0.04 | 0.817 ± 0.029 | 0.209 ± 0.036 | 0.24 ± 0.036 | 0.497 ± 0.018 |
| FWFSFSFLCHSY | 0.422 ± 0.016 | 0.384 ± 0.022 | 0.4491 ± 0.001 | 0.358 ± 0.032 | 0.4386 ± 0.001 | 0.386 ± 0.02 | 0.38 ± 0.0095 | 0.407 ± 0.02 |
| LPSRWVPLPTPA | 0.508 ± 0.016 | 0.5362 ± 0.0003 | 0.569 ± 0.024 | 0.407 ± 0.037 | 0.59 ± 0.004 | 0.38 ± 0.016 | 0.413 ± 0.022 | 0.56219 ± 0.00016 |
| PRSFFYIQFVFA | 0.324 ± 0.0069 | 0.301 ± 0.016 | 0.369 ± 0.025 | 0.233 ± 0.016 | 0.431 ± 0.011 | 0.194 ± 0.011 | 0.224 ± 0.022 | 0.375 ± 0.014 |
| ECCKRFCCRFVA | 0.338 ± 0.044 | 0.627 ± 0.038 | 0.6982 ± 0.0042 | 0.644 ± 0.0065 | 0.73 ± 0.018 | 0.231 ± 0.0082 | 0.256 ± 0.021 | 0.4002 ± 0.0022 |
| VVLAFFFWFFVG | 0.365 ± 0.016 | 0.359 ± 0.04 | 0.518 ± 0.028 | 0.383 ± 0.034 | 0.507 ± 0.011 | 0.25 ± 0.0047 | 0.265 ± 0.038 | 0.362 ± 0.01 |
| GGGSASGWRAAA | 0.48 ± 0.025 | 0.665 ± 0.0097 | 0.735 ± 0.015 | 0.633 ± 0.0096 | 0.716 ± 0.027 | 0.344 ± 0.0043 | 0.39 ± 0.022 | 0.639 ± 0.0072 |
| FFVFYICSCFLV | 0.4 ± 0.047 | 0.444 ± 0.037 | 0.476 ± 0.0043 | 0.389 ± 0.02 | 0.4843 ± 0.0041 | 0.457 ± 0.0071 | 0.372 ± 0.0097 | 0.442 ± 0.024 |
| RPHPLHIPRRLA | 0.238 ± 0.028 | 0.624 ± 0.054 | 0.6848 ± 0.0035 | 0.684 ± 0.01 | 0.692 ± 0.047 | 0.146 ± 0.011 | 0.216 ± 0.072 | 0.391 ± 0.037 |
| VLVVTAFTFSCP | 0.324 ± 0.0049 | 0.352 ± 0.049 | 0.4393 ± 0.00063 | 0.327 ± 0.018 | 0.416 ± 0.022 | 0.319 ± 0.015 | 0.317 ± 0.015 | 0.392 ± 0.02 |
| WIGCTVKIASLY | 0.437 ± 0.036 | 0.619 ± 0.015 | 0.67 ± 0.018 | 0.558 ± 0.03 | 0.693 ± 0.012 | 0.219 ± 0.021 | 0.261 ± 0.019 | 0.49113 ± 0.00019 |
| LVWSGLIVVVGG | 0.3 ± 0.042 | 0.179 ± 0.024 | 0.204 ± 0.064 | 0.2 ± 0.03 | 0.318 ± 0.013 | 0.176 ± 0.033 | 0.195 ± 0.033 | 0.269 ± 0.012 |
| ARVSLSFVSVSA | 0.404 ± 0.015 | 0.4168 ± 0.004 | 0.442 ± 0.012 | 0.279 ± 0.03 | 0.494 ± 0.007 | 0.225 ± 0.0052 | 0.281 ± 0.014 | 0.4672 ± 0.0023 |
| KCWSGTVMVRLG | 0.34 ± 0.0068 | 0.675 ± 0.062 | 0.72 ± 0.017 | 0.596 ± 0.013 | 0.723 ± 0.032 | 0.164 ± 0.0099 | 0.191 ± 0.036 | 0.4516 ± 0.0042 |
| LVPYLWWLVFAL | 0.274 ± 0.027 | 0.189 ± 0.015 | 0.125 ± 0.023 | 0.192 ± 0.028 | 0.319 ± 0.046 | 0.202 ± 0.011 | 0.143 ± 0.019 | 0.24 ± 0.026 |
| FRILVGCRVVLM | 0.426 ± 0.021 | 0.429 ± 0.0069 | 0.51 ± 0.077 | 0.355 ± 0.028 | 0.5047 ± 0.00065 | 0.311 ± 0.0097 | 0.343 ± 0.051 | 0.483 ± 0.016 |
| QGRRKEKAVTLN | 0.3 ± 0.015 | 0.652 ± 0.12 | 0.685 ± 0.016 | 0.648 ± 0.041 | 0.729 ± 0.019 | 0.175 ± 0.035 | 0.193 ± 0.032 | 0.241 ± 0.022 |
| RGVPPPPWTPPP | 0.539 ± 0.062 | 0.706 ± 0.041 | 0.7482 ± 0.0045 | 0.6792 ± 0.0067 | 0.731 ± 0.02 | 0.653 ± 0.012 | 0.661 ± 0.0081 | 0.716 ± 0.014 |

| Sequence | protein stability index [1] | protein stability index [2, 3] | protein stability index [2, 4] | protein stability index [2, 5] | protein stability index [2, 6] | protein stability index [2, 7] | protein stability index [2, 8] | protein stability index [2, 9] |
| --- | --- | --- | --- | --- | --- | --- | --- | --- |
| FCLLRYPFVGVL | 0.415 ± 0.013 | 0.625 ± 0.047 | 0.683 ± 0.025 | 0.554 ± 0.022 | 0.677 ± 0.025 | 0.272 ± 0.0032 | 0.318 ± 0.0089 | 0.514 ± 0.0069 |
| GPNWCSVCQGVG | 0.453 ± 0.015 | 0.421 ± 0.03 | 0.477 ± 0.028 | 0.43 ± 0.011 | 0.4926 ± 0.0034 | 0.446 ± 0.0064 | 0.426 ± 0.013 | 0.4733 ± 0.00063 |
| LPIFWVWFSVFR | 0.349 ± 0.0062 | 0.232 ± 0.012 | 0.243 ± 0.022 | 0.269 ± 0.035 | 0.445 ± 0.027 | 0.334 ± 0.027 | 0.257 ± 0.034 | 0.3973 ± 0.0026 |
| TPYIFVLACLHV | 0.372 ± 0.0091 | 0.395 ± 0.0014 | 0.476 ± 0.0062 | 0.326 ± 0.013 | 0.5039 ± 0.0042 | 0.274 ± 0.013 | 0.309 ± 0.021 | 0.461 ± 0.0069 |
| STVGAWGRVGEG | 0.459 ± 0.025 | 0.435 ± 0.018 | 0.462 ± 0.038 | 0.418 ± 0.035 | 0.484 ± 0.0078 | 0.45024 ± 0.00039 | 0.438 ± 0.016 | 0.472 ± 0.0089 |
| VVRMRPRLFSLY | 0.3429 ± 0.0022 | 0.807 ± 0.04 | 0.8659 ± 0.0019 | 0.687 ± 0.047 | 0.816 ± 0.025 | 0.186 ± 0.011 | 0.208 ± 0.0086 | 0.354 ± 0.033 |
| LWVSHFVILIVS | 0.213 ± 0.03 | 0.122 ± 0.032 | 0.105 ± 0.0073 | 0.135 ± 0.03 | 0.236 ± 0.0048 | 0.0934 ± 0.036 | 0.108 ± 0.026 | 0.16 ± 0.0095 |
| FLRWRVWVVVGW | 0.234 ± 0.0043 | 0.187 ± 0.023 | 0.259 ± 0.024 | 0.199 ± 0.035 | 0.358 ± 0.027 | 0.18 ± 0.012 | 0.181 ± 0.021 | 0.332 ± 0.039 |
| LFWWCMVFISLI | 0.3 ± 0.019 | 0.3069 ± 0.0013 | 0.37 ± 0.015 | 0.285 ± 0.041 | 0.413 ± 0.0096 | 0.212 ± 0.017 | 0.231 ± 0.029 | 0.3395 ± 0.00099 |
| VCFFLFWCLSFS | 0.454 ± 0.034 | 0.4239 ± 0.0013 | 0.479 ± 0.021 | 0.343 ± 0.05 | 0.4916 ± 0.00098 | 0.348 ± 0.011 | 0.353 ± 0.025 | 0.476 ± 0.021 |
| VRFSAVFVKVGV | 0.4727 ± 0.0026 | 0.547 ± 0.031 | 0.553 ± 0.0091 | 0.395 ± 0.026 | 0.5703 ± 0.0032 | 0.377 ± 0.0083 | 0.402 ± 0.023 | 0.5317 ± 0.0017 |
| LSLWPIFGIIYC | 0.4508 ± 0.0019 | 0.46 ± 0.035 | 0.4637 ± 0.0007 | 0.357 ± 0.024 | 0.516 ± 0.013 | 0.332 ± 0.011 | 0.364 ± 0.019 | 0.513 ± 0.019 |
| GFFFWTMCFWVV | 0.284 ± 0.046 | 0.255 ± 0.01 | 0.349 ± 0.022 | 0.303 ± 0.038 | 0.456 ± 0.011 | 0.204 ± 0.0089 | 0.194 ± 0.02 | 0.322 ± 0.026 |
| ATAVMILCFRWC | 0.419 ± 0.053 | 0.392 ± 0.0051 | 0.492 ± 0.018 | 0.329 ± 0.041 | 0.526 ± 0.013 | 0.2872 ± 0.0016 | 0.308 ± 0.015 | 0.4711 ± 0.00051 |
| VVTFCCARVTKI | 0.522 ± 0.043 | 0.665 ± 0.048 | 0.6997 ± 0.0057 | 0.622 ± 0.038 | 0.665 ± 0.01 | 0.585 ± 0.026 | 0.571 ± 0.025 | 0.651 ± 0.021 |
| MCVCLLVRVVPS | 0.297 ± 0.044 | 0.188 ± 0.0053 | 0.3241 ± 0.00049 | 0.211 ± 0.029 | 0.41 ± 0.01 | 0.175 ± 0.0074 | 0.194 ± 0.022 | 0.357 ± 0.0044 |
| SGFLRFRGLVCY | 0.359 ± 0.019 | 0.396 ± 0.016 | 0.445 ± 0.021 | 0.288 ± 0.043 | 0.503 ± 0.0067 | 0.233 ± 0.0028 | 0.278 ± 0.038 | 0.464 ± 0.008 |
| RGVGSGGLEGIG | 0.541 ± 0.061 | 0.509 ± 0.06 | 0.5457 ± 0.0032 | 0.5178 ± 0.001 | 0.543 ± 0.025 | 0.51 ± 0.004 | 0.514 ± 0.021 | 0.5404 ± 0.0019 |
| FVCFSFFFPFLL | 0.237 ± 0.057 | 0.401 ± 0.0099 | 0.441 ± 0.0071 | 0.37 ± 0.033 | 0.5099 ± 0.001 | 0.163 ± 0.01 | 0.148 ± 0.016 | 0.238 ± 0.0042 |
